{"source": "paper PMC12913813", "molecular_target": "Smog::GFP (Drosophila)", "test": "fluorescence correlation spectroscopy", "data": [{"substance": "Smog::GFP (receptor)", "values": [{"measurement": "estimated fraction of dimers (monomer/dimer model), WT embryos", "value": 68, "unit": "%"}, {"measurement": "estimated fraction of dimers (monomer/dimer model), control embryos", "value": 79, "unit": "%"}, {"measurement": "estimated fraction of dimers (monomer/dimer model), gprk2 RNAi embryos", "value": 100, "unit": "%"}, {"measurement": "estimated fraction of trimers (monomer/trimer model), control embryos", "value": 21, "unit": "%"}, {"measurement": "estimated fraction of trimers (monomer/trimer model), gprk2 RNAi embryos", "value": 76, "unit": "%"}]}]}
